Data from US20200062856A1 (XDCEXPLORER SHANGHAI, published 2020).

T1: human TPBG-hFc protein (human, UniProt Q13641 32-355)
T1 construct: range 32-355; Expressed in HEK293 cells, purified on protein A; also called immunogen A; hFc tagged TPBG protein; not shown: human IgG Fc fragment of the pCpC vector
T1 sequence (looked up): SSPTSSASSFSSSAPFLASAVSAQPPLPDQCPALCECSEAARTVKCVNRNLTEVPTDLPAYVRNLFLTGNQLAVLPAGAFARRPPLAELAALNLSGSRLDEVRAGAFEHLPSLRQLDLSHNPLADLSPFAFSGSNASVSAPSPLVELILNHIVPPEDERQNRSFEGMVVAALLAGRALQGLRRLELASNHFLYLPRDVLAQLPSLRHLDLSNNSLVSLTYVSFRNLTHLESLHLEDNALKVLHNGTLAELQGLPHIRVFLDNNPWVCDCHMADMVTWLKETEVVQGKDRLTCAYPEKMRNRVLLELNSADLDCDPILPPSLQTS


Target: T1, human TPBG-hFc protein
Assay: ELISA, coated human TPBG-hFc
Procedure: The purified human TPBG-hFc obtained from step (1) diluting with PBS to a final concentration of 1.0 μg/mL was aliquoted into a 96-well ELISA plate at 100 μL per well, and sealed with a parafilm and incubated at 4° C. overnight. The plate was washed twice with plate washing buffer (PBS containing 0.01% (v/v) Tween 20), and blocked with blocking buffer (PBS containing 0.01% (v/v) Tween 20 and 1% (w/w) BSA) at room temperature for 2 h. The blocking buffer was discarded, and […] per well of the purified antibody TPBG was added. After incubating at 37° C. for 2 h, the plate was washed for three times with plate washing buffer (PBS containing 0.01% (v/v) Tween 20). HRP (horseradish peroxidase)-labeled secondary antibody (purchased from Sigma) was added and incubated at 37° C. for 2 h, and the plate was washed for three times using plate washing buffer (PBS containing 0.01% (v/v) Tween 20). 100 μL of TMB substrate was aliquoted into each well, incubated at room temperature for 30 min, and 100 μL of stop buffer (1.0 N HCl) per well was subsequently added. A_{450 nm} values were read using the ELISA plate reader (SpectraMax 384plus purchased from Molecular Device), and the results were shown in Table 5. […] In Table 5 the IgG control herein is a mice IgG control, the data in the Table are OD_{450 nm} values, and Blank represents the OD_{450 nm} value of PBS buffer in the plate.
The purified humanized TPBG antibody obtained from Embodiment 1 was reacted with human TPBG-hFc, for the method, see (5) Identification of lead antibody in Embodiment 1. The EC50 in Table 11 and Table 12 are calculated according to the OD450 nm value of the h12B12 variants and the h28D4 variants, respectively. […] FIGS. 7A and 7B are the binding reactions of purified humanized h12B12 variants to human TBPG-hFc protein, and FIGS. 8A and 8B are the binding reactions of the purified humanized h28D4 variants to human TBPG-hFc protein.

Row | EC50 [nM] | Binder
1 | 0.362 | Humanized antibody 12B12-6 (antibody, V domains shown, also called h12B12-6) VH: EVQLVESGGGLVQPGGSLRLSCAASGFTFSNFGMHWVRQAPGKGLEWVAYISSGSTSFYYADTVKGRFTISRDNAKNSLYLQMNSLRDEDTAVYYCSRTNSLLRGFFDAWGQGTTVTVSS VL: DIVLTQSPDSLAVSLGERATINCRASQSVSSSSYTYLHWYQQKPGQPPKLLIKSASNLESGVPDRFSGSGSGTDFTLTISSLQAEDVAVYYCQHSWEIPLTFGQGTKLEIK
2 | 0.257 | Humanized antibody 12B12-14 (antibody, V domains shown, also called h12B12-14) VH: EVQLVESGGGLVQPGGSLRLSCAASGFTFSNFGMHWVRQAPGKGLEWVAYISSGSTSFYYADTVKGRFTISRDNAKNSLYLQMNSLRDEDTAVYYCSRTNSLLRGFFDAWGQGTTVTVSS VL: DIVLTQTPLSLSVTPGQPASISCRASQSVSSSSYTYLHWYLQKPGQPPQLLIKSASNLESGVPDRFSGSGSGTDFTLKISRVEAEDVGVYYCQHSWEIPLTFGQGTKLEIK
3 | 0.248 | Humanized antibody 12B12-1 (antibody, V domains shown, also called h12B12-1) VH: EVQLVESGGGLVQPGGSLRLSCAASGFTFSNFGMHWVRQAPGKGLEWVSYISSGSTSFYYADTVKGRFTISRDNAKNSLYLQMNSLRDEDTAVYYCSRTNSLLRGFFDAWGQGTTVTVSS VL: DIVMTQSPDSLAVSLGERATINCRASQSVSSSSYTYLHWYQQKPGQPPKLLIYSASNLESGVPDRFSGSGSGTDFTLTISSLQAEDVAVYYCQHSWEIPLTFGQGTKLEIK
4 | 0.25 | Humanized antibody 12B12-10 (antibody, V domains shown, also called h12B12-10) VH: EVQLVESGGGLVQPGGSLRLSCAASGFTFSNFGMHWVRQAPGKGLEWVAYISSGSTSFYYADTVKGRFTISRDNAKNSLYLQMNSLRDEDTAVYYCSRTNSLLRGFFDAWGQGTTVTVSS VL: DIVMTQTPLSLSVTPGQPASISCRASQSVSSSSYTYLHWYLQKPGQPPQLLIYSASNLESGVPDRFSGSGSGTDFTLKISRVEAEDVGVYYCQHSWEIPLTFGQGTKLEIK
5 | 0.239 | Humanized antibody 12B12-11 (antibody, V domains shown, also called h12B12-11) VH: EVQLVESGGGVVQPGRSLRLSCAASGFTFSNFGMHWVRQAPGKGLEWVAYISSGSTSFYYADTVKGRFTISRDNSKNTLYLQMNSLRAEDTAVYYCSRTNSLLRGFFDAWGQGTTVTVSS VL: DIVMTQTPLSLSVTPGQPASISCRASQSVSSSSYTYLHWYLQKPGQPPQLLIYSASNLESGVPDRFSGSGSGTDFTLKISRVEAEDVGVYYCQHSWEIPLTFGQGTKLEIK
6 | 0.289 | Humanized antibody 12B12-13 (antibody, V domains shown, also called h12B12-13) VH: EVQLVESGGGLVQPGGSLRLSCAASGFTFSNFGMHWVRQAPGKGLEWVSYISSGSTSFYYADTVKGRFTISRDNAKNSLYLQMNSLRDEDTAVYYCSRTNSLLRGFFDAWGQGTTVTVSS VL: DIVLTQTPLSLSVTPGQPASISCRASQSVSSSSYTYLHWYLQKPGQPPQLLIKSASNLESGVPDRFSGSGSGTDFTLKISRVEAEDVGVYYCQHSWEIPLTFGQGTKLEIK
7 | 0.367 | Humanized antibody 12B12-7 (antibody, V domains shown, also called h12B12-7) VH: EVQLVESGGGVVQPGRSLRLSCAASGFTFSNFGMHWVRQAPGKGLEWVAYISSGSTSFYYADTVKGRFTISRDNSKNTLYLQMNSLRAEDTAVYYCARTNSLLRGFFDAWGQGTTVTVSS VL: DIVLTQSPDSLAVSLGERATINCRASQSVSSSSYTYLHWYQQKPGQPPKLLIKSASNLESGVPDRFSGSGSGTDFTLTISSLQAEDVAVYYCQHSWEIPLTFGQGTKLEIK
8 | 0.223 | Humanized antibody 12B12-9 (antibody, V domains shown, also called h12B12-9) VH: EVQLVESGGGLVQPGGSLRLSCAASGFTFSNFGMHWVRQAPGKGLEWVSYISSGSTSFYYADTVKGRFTISRDNAKNSLYLQMNSLRDEDTAVYYCSRTNSLLRGFFDAWGQGTTVTVSS VL: DIVMTQTPLSLSVTPGQPASISCRASQSVSSSSYTYLHWYLQKPGQPPQLLIYSASNLESGVPDRFSGSGSGTDFTLKISRVEAEDVGVYYCQHSWEIPLTFGQGTKLEIK
9 | 0.287 | Humanized antibody 12B12-8 (antibody, V domains shown, also called h12B12-8) VH: EVQLVESGGGVVQPGRSLRLSCAASGFTFSNFGMHWVRQAPGKGLEWVAYISSGSTSFYYADTVKGRFTISRDNSKNTLYLQMNSLRAEDTAVYYCSRTNSLLRGFFDAWGQGTTVTVSS VL: DIVLTQSPDSLAVSLGERATINCRASQSVSSSSYTYLHWYQQKPGQPPKLLIKSASNLESGVPDRFSGSGSGTDFTLTISSLQAEDVAVYYCQHSWEIPLTFGQGTKLEIK
10 | 0.333 | Humanized antibody 12B12-3 (antibody, V domains shown, also called h12B12-3) VH: EVQLVESGGGVVQPGRSLRLSCAASGFTFSNFGMHWVRQAPGKGLEWVAYISSGSTSFYYADTVKGRFTISRDNSKNTLYLQMNSLRAEDTAVYYCSRTNSLLRGFFDAWGQGTTVTVSS VL: DIVMTQSPDSLAVSLGERATINCRASQSVSSSSYTYLHWYQQKPGQPPKLLIYSASNLESGVPDRFSGSGSGTDFTLTISSLQAEDVAVYYCQHSWEIPLTFGQGTKLEIK
11 | 0.274 | Humanized antibody 12B12-2 (antibody, V domains shown, also called h12B12-2) VH: EVQLVESGGGLVQPGGSLRLSCAASGFTFSNFGMHWVRQAPGKGLEWVAYISSGSTSFYYADTVKGRFTISRDNAKNSLYLQMNSLRDEDTAVYYCSRTNSLLRGFFDAWGQGTTVTVSS VL: DIVMTQSPDSLAVSLGERATINCRASQSVSSSSYTYLHWYQQKPGQPPKLLIYSASNLESGVPDRFSGSGSGTDFTLTISSLQAEDVAVYYCQHSWEIPLTFGQGTKLEIK
12 | 0.205 | Humanized antibody 28D4-6 (antibody, V domains shown, also called h28D4-6) VH: EVQLVESGGGLVKPGGSLRLSCAASGFTFSNYVMSWIRQAPGKGLEWVSEISTGGSHTYYSDTVTGRFTISRDNAKNSLYLQMNSLRAEDTAVYYCIMFYYGSSYSMDYWGQGTTVTVSS VL: DIQMTQSPSSLSASVGDRVTITCRASQDIRNYLNWYQQKPGKAPKLLIYHTSRLHSGVPSRFSGSGSGTDYTFTISSLQPEDIATYYCQQGDTLPLTFGQGTRLEIK
13 | 0.218 | Humanized antibody 28D4-9 (antibody, V domains shown, also called h28D4-9) VH: EVQLVESGGGLVKPGGSLRLSCAASGFTFSNYVMSWIRQAPGKGLEWVSEISTGGSHTYYSDTVTGRFTISRDNAKNSLYLQMNSLRAEDTAVYYCARFYYGSSYSMDYWGQGTTVTVSS VL: DIQMTQSPSSLSASVGDRVTITCRASQDIRNYLNWYQQKPGKTVKLLIYHTSRLHSGVPSRFSGSGSGTDYTFTISSLQPEDIATYFCQQGDTLPLTFGQGTRLEIK
14 | 0.364 | Humanized antibody 28D4-1 (antibody, V domains shown, also called h28D4-1) VH: EVQLVESGGGLVKPGGSLRLSCAASGFTFSNYVMSWIRQAPGKGLEWVSEISTGGSHTYYSDTVTGRFTISRDNAKNSLYLQMNSLRAEDTAVYYCARFYYGSSYSMDYWGQGTTVTVSS VL: DIQMTQSPSSLSASVGDRVTITCRASQDIRNYLNWYQQKPGKAPKLLIYHTSRLHSGVPSRFSGSGSGTDFTFTISSLQPEDIATYYCQQGDTLPLTFGQGTRLEIK
15 | 0.224 | Humanized antibody 28D4-10 (antibody, V domains shown, also called h28D4-10) VH: EVQLVESGGGLVKPGGSLRLSCAASGFTFSNYVMSWIRQAPGKGLEWVSEISTGGSHTYYSDTVTGRFTISRDNAKNSLYLQMNSLRAEDTAVYYCIMFYYGSSYSMDYWGQGTTVTVSS VL: DIQMTQSPSSLSASVGDRVTITCRASQDIRNYLNWYQQKPGKTVKLLIYHTSRLHSGVPSRFSGSGSGTDYTFTISSLQPEDIATYFCQQGDTLPLTFGQGTRLEIK
16 | 0.782 | Humanized antibody 28D4-5 (antibody, V domains shown, also called h28D4-5) VH: EVQLVESGGGLVKPGGSLRLSCAASGFTFSNYVMSWIRQAPGKGLEWVSEISTGGSHTYYSDTVTGRFTISRDNAKNSLYLQMNSLRAEDTAVYYCARFYYGSSYSMDYWGQGTTVTVSS VL: DIQMTQSPSSLSASVGDRVTITCRASQDIRNYLNWYQQKPGKAPKLLIYHTSRLHSGVPSRFSGSGSGTDYTFTISSLQPEDIATYYCQQGDTLPLTFGQGTRLEIK
17 | 0.181 | Humanized antibody 28D4-2 (antibody, V domains shown, also called h28D4-2) VH: EVQLVESGGGLVKPGGSLRLSCAASGFTFSNYVMSWIRQAPGKGLEWVSEISTGGSHTYYSDTVTGRFTISRDNAKNSLYLQMNSLRAEDTAVYYCIMFYYGSSYSMDYWGQGTTVTVSS VL: DIQMTQSPSSLSASVGDRVTITCRASQDIRNYLNWYQQKPGKAPKLLIYHTSRLHSGVPSRFSGSGSGTDFTFTISSLQPEDIATYYCQQGDTLPLTFGQGTRLEIK
18 | 0.191 | Humanized antibody 28D4-11 (antibody, V domains shown, also called h28D4-11) VH: EVQLVESGGGLVKPGGSLRLSCAASGFTFSNYVMSWIRQAPGKGLEWVAEISTGGSHTYYSDTVTGRFTISRDNAKKSLYLQMNSLRAEDTAVYYCIMFYYGSSYSMDYWGQGTTVTVSS VL: DIQMTQSPSSLSASVGDRVTITCRASQDIRNYLNWYQQKPGKTVKLLIYHTSRLHSGVPSRFSGSGSGTDYTFTISSLQPEDIATYFCQQGDTLPLTFGQGTRLEIK
